Data taken from paper PMC7603008 (Materials, 2020).

Experiments:
[1] = tested on: deep cavities in beagle dog premolars; experiment: Deep cavity tooth defect model in beagle dog premolars; type: in vivo
Source text: (§1) For in vivo canine studies, a total of 10 beagle dogs (2 y) were operated on, with all of them reaching end points. For each animal, 4 to 6 maxillary premolars and 6 mandibular premolars were used, depending on their periodontal conditions. Control and experimental groups were allocated to each and every animal so that possible biases resulting from individual nutritional, behavioral, and pulpal conditions could be eliminated. Compared to small animal studies, the sample size was necessarily limited for feasibility and ethical reasons. While the exact numbers for each experiment are included in the figure legends, at least 6 premolars and up to 12 premolars were assigned to every control and experimental group. Investigators performing beagle operation and sampling were not blinded, while investigators involved in histological analysis were blinded. All experiments using animals followed protocols approved by the Institutional Animal Care and Use Committee of Seoul National University (SNU-180416-2-1 and SNU-171020-5-2).
(§2) Beagle dogs of 1–2 years of age were used for three independent experiments. After disinfecting the cervical regions of the maxillary and mandibular premolars with 0.5% chlorhexidine, dish-shaped class V cavities were prepared using a #4 high-speed round bur (head diameter, 1.4 mm). […]

[2] = tested on: shallow cavities in beagle dog premolars; experiment: Shallow cavity tooth defect model in beagle dog premolars; type: in vivo
Source text: as §1, §2

[3] = tested on: cavities in beagle dog premolars; experiment: Characterisation of CPNE7-induced hard tissue (SEM, Masson's trichrome, alternative filling materials); type: in vivo
Method: Beagle dogs of 1–2 years of age were used for three independent experiments. After disinfecting the cervical regions of the maxillary and mandibular premolars with 0.5% chlorhexidine, dish-shaped class V cavities were prepared using a #4 high-speed round bur (head diameter, 1.4 mm). For shallow cavities, the drilling stopped when half to two-thirds of the bur head penetrated the tooth structure, depending on the tooth size. For deep cavities, the drilling stopped when the color of the remaining dentin looked reddish gray. The smear layer was removed with a gentle application of 17% EDTA. After sufficient irrigation, surgical sites were dried with a cotton pellet. For CPNE7 function analysis, the cavities were either untreated or treated with a topical application of rCPNE7 (recombinant CPNE7) protein (1 µg total rCPNE7 per tooth in a buffer containing 25 mM Tris-HCl, 100 mM glycine, and 10% glycerol). After a brief incubation for diffusion, the cavities were then filled with either glass ionomer (GI) cement (GC; Fuji II LC; GC America Inc., Alsip, IL, USA), composite resin (Filtek Supreme Ultra Flowable Restorative; 3 M, MN, USA) or intermediate restorative material (IRM; Dentsply Sirona, New York, PA, USA). For peptide function analysis, an HIV-1 Tat-derived cell-penetrating peptide was used as control. In addition to the abovementioned shallow and deep cavity models, complete pulp exposure was performed for peptide analysis. For complete pulp exposure, the drilling stopped when a pin-point exposure of the pulp was generated and bleeding was evident. Cotton pellets soaked in saline were used for bleeding control. Cavities with exposed pulps were divided into two groups for the experiment. Group 1 received only GI cement filling, group 2 received GI cement filling after MTA (ProRoot MTA; Dentsply Sirona, New York, PA, USA) sealing, and group 3 received GI cement filling after MTA mixed with CPNE7-derived peptide (Cpne7-DP) sealing. […]

[4] = tested on: dental pulp cells under deep cavities; experiment: TUNEL assay of dental pulp at deep cavity preparation areas; type: in vivo, beagle dog; details: 3 weeks, versus GI cement only control
Method: Apoptotic cells were detected using the TUNEL kit (Roche Biochemicals, Basel, Switzerland), according to the manufacturer’s instructions. Endogenous peroxidase activity within the tissue sections were blocked in 3% H2O2 prior to enzymatic labeling. To yield a colored reaction product, enzymatically labeled cells were then incubated with 3,3-diaminobenzidine tetrahydrochloride. Visualization was achieved by incubating the sections with diaminobenzidine tetrahydrochloride (DAB), and subsequent counter-staining with hematoxylin. Positive TUNEL signals were converted to red color using IHC Profiler of Image J software (National Institute of Health, Gaithersburg, MD, USA).

[5] = beagle dog premolars, topical application, then cavity filling, H&E histology after 3 weeks
[6] = six weeks instead of three, H&E, n = 6

B1: rCPNE7: recombinant CPNE7 protein, a dental epithelium-derived calcium-dependent phospholipid-binding protein (Origene) (protein, UniProt Q9UBL6 1-633, looked up)
Copine-7: MSAGSERGAAATPGGLPAPCASKVELRLSCRHLLDRDPLTKSDPSVALLQQAQGQWVQVGRTEVVRSSLHPVFSKVFTVDYYFEEVQRLRFEVYDTHGPSGFSCQEDDFLGGMECTLGQPAQKWLLQVVMRVSVDVLGPAGHCAKHFLCCTESSHLARTGPSFLLRYDDLCLPWATAGAVRWWTCRGGHTQGWQIVAQKKVTRPLLLKFGRNAGKSTITVIAEDISGNNGYVELSFRARKLDDKDLFSKSDPFLELYRVNDDQGLQLVYRTEVVKNNLNPVWEAFKVSLSSLCSCEETRPLKCLVWDYDSRGKHDFIGEFSTTFEEMQKAFEEGQAQWDCVNPKYKQKRRSYKNSGVVVLADLKFHRVYSFLDYIMGGCQIHFTVAIDFTASNGDPRNSCSLHYINPYQPNEYLKALVSVGEICQDYDSDKRFSALGFGARIPPKYEVSHDFAINFNPEDDECEGIQGVVEAYQNCLPRVQLYGPTNVAPIISKVARVAAAEESTGKASQYYILLILTDGVVTDMADTREAIVRASRLPMSIIIVGVGNADFTDMQVLDGDDGVLRSPRGEPALRDIVQFVPFRELKNASPAALAKCVLAEVPKQVVEYYSHRGLPPRSLGVPAGEASPGCTP
For B1, which “New hard tissue formation beneath deep cavity” value [1, 5] is on record?
Its value is “newly generated tertiary dentin was present beneath the remaining dentin”.

And the “Thickness of newly formed tubular dentin, deep cavity” value [1, 6]?
The value was “increased significantly”.

What about the “New hard tissue formation beneath shallow cavity” value [2, 5] of the same molecule?
Its value is “newly generated tertiary dentin retaining the physiologic tubule structure”.

And the “Thickness of newly formed tubular dentin, shallow cavity” value [2, 6]?
Its value is “increased significantly”.

And the “Collagen content of newly generated dentin area” value ([3]; Masson's trichrome staining)?
Its value is “higher collagen content”.

What about the “Hard tissue formation with alternative cavity filling material” value ([3]; composite resin or zinc oxide-eugenol (ZOE) filling, H&E after six weeks, n = 6) of the same molecule?
Its value is “formation of tubular dentin”.

And the “Presence of dentinal tubules in the newly mineralized area” value ([3]; scanning electron microscopy, along the entire length of predentin)?
The value was “clear tubule structure”.

And the “Cell death under the newly generated dentin (TUNEL)” value [4]?
The value was “significantly reduced cell death”.
